The test has as its target Drosophila Slit D1-4 (the four leucine-rich repeat domains) (Drosophila). The test can be described thus: ELISA. In general terms: ELISA stands for enzyme-linked immunosorbent assay.

Our source for the fold increase of the apparent affinity with 10 μg/ml heparin against no heparin values is publication PMC3680705.

Drosophila Slit D1-4 (the four leucine-rich repeat domains) (Drosophila), sequence (P24014 64-922): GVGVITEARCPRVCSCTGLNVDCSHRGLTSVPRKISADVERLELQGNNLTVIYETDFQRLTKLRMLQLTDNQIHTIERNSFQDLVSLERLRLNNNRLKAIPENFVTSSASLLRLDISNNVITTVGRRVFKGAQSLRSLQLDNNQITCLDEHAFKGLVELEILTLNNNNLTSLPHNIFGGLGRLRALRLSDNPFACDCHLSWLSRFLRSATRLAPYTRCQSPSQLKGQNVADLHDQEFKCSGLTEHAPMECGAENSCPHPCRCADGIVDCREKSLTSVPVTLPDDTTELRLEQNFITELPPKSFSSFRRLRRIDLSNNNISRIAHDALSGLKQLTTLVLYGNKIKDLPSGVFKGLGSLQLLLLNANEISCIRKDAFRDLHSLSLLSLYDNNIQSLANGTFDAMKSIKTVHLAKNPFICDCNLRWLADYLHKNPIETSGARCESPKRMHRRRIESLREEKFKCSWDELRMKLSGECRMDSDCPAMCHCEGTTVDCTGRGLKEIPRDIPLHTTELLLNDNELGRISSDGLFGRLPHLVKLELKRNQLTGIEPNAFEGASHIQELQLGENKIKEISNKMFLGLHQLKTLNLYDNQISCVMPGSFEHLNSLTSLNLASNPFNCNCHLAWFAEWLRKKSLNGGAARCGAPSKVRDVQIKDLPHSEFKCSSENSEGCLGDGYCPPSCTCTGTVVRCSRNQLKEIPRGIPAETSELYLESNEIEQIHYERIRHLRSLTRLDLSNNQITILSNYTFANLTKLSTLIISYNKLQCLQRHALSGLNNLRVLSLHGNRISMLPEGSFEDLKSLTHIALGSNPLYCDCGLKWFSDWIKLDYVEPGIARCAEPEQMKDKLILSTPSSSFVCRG

For the substance Drosophila Robo IG1–5 Fc (Fc fusion), the fold increase of the apparent affinity with 10 μg/ml heparin against no heparin is over 10 fold.
